Legend:
[1] = system: CHO-K1 cells expressing human α11; experiment: Cell adhesion inhibition (xCelligence), type I collagen; type: cell-based; details: Yes/No
Procedure, shortened: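 CHO-K1 cells expressing human α11 (0.6×10^6 cells/mL) were preincubated with mAbs across a concentration range for 20 min at 37° C, then seeded on wells coated with 100 ng/mL type I collagen and blocked with 3% BSA. Impedance-based adhesion was recorded over 6 h, and maximum adhesion was compared with untreated control.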

[2] = molecular target: T1, α11β1 expressed on the surface of CHO-K1 cells (Homo sapiens, UniProt Q9UKX5); experiment: FACS antibody binding to CHO-K1 cells expressing human α11; details: binding Yes/No
T1 construct: expressed in transfected cells; host or cells: CHO-K1
T1 sequence (Q9UKX5 23-1188): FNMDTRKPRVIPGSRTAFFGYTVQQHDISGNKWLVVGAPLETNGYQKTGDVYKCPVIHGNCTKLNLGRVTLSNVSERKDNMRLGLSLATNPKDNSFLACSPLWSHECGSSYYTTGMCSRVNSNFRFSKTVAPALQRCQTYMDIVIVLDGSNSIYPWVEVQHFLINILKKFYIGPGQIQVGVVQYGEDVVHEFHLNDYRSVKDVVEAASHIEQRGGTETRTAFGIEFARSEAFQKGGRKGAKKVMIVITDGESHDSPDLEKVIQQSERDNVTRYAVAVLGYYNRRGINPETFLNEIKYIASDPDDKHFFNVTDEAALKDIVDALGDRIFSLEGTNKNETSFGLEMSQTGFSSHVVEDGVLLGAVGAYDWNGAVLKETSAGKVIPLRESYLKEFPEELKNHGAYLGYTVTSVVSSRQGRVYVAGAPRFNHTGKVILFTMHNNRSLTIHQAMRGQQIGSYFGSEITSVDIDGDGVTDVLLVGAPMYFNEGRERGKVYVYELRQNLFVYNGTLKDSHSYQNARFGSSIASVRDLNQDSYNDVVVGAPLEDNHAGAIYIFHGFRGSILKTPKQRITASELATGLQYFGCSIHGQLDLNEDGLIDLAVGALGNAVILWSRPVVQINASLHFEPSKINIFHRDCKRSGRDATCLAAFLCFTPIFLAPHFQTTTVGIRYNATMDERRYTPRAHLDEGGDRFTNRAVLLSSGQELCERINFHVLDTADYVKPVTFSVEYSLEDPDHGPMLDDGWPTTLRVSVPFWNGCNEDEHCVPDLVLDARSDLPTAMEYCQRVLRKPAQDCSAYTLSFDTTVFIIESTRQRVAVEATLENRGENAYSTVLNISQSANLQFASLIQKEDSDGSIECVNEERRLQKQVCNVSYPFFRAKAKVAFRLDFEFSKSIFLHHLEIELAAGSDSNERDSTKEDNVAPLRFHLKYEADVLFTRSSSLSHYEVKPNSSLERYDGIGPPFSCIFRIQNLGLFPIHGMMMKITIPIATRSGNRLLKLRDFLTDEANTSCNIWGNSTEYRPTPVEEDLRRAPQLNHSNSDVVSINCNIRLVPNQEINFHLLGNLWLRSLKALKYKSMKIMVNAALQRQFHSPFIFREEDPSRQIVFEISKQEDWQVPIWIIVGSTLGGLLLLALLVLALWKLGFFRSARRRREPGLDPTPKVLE
Procedure, shortened: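 Wild-type or human α11-transfected CHO-K1 cells (endogenous β1) were incubated with antibody at varied concentrations for 30 min at 4° C, then secondary antibody (1:100) 30 min at 4° C. Cells were PFA-fixed and read by flow cytometry; binding EC50 estimated from FACS data.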

[3] = molecular target: human α11β1 (Homo sapiens, UniProt Q9UKX5); experiment: ELISA binding to recombinant human α11β1; details: binding Yes/No
Chain of human α11β1 (P05556 21-728 partner limits assumed, one chain of several): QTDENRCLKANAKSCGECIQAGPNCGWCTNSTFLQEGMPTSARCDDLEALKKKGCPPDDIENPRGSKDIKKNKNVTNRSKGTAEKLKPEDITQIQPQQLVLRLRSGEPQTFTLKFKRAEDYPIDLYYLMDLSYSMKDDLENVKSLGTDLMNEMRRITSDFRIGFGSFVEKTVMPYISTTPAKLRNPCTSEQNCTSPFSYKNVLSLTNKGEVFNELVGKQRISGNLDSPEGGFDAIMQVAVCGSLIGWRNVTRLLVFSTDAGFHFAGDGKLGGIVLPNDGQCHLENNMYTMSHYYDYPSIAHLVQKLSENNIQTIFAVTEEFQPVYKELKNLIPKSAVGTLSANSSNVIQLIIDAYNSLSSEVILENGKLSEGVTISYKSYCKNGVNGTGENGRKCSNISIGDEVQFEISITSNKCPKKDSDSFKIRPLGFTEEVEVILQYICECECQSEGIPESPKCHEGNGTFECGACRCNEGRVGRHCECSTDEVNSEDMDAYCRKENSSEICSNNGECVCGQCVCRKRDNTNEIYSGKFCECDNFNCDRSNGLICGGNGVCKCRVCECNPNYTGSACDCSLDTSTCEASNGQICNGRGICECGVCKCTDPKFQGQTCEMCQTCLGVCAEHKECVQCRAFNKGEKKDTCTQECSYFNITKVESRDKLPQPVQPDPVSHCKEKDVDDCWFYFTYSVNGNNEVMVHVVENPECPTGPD
Procedure, shortened: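 Direct ELISA against human or mouse α11β1 coated at 0.25 μg/mL; antibody titration 1 h at room temperature, HRP-based colorimetric read-out at 450 nm.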

B1: 5A7: rabbit anti-α11β1 mAb; heavy chain SEQ ID NO: 193, light chain SEQ ID NO: 194 (antibody)
heavy: METGLRWLLLVAVLKGVQCQSLEESGGGLVQPEGSLTLACTASGFSFSSYYYICWVRQAPGTGLEWIGCINTGSDDTHYASWLKGRFTFSKASSTTLTLQMTSLTAADTATYFCARSSGSSDDAYDLWGPGTLVTVSSGQPKAPSVFPLAPCCGDTPSSTVTLGCLVKGYLPEPVTVTWNSGTLTNGVRTFPSVRQSSGLYSLSSVVSVTSSSQPVTCNVAHPATNTKVDKTVAPSTCSKPMCPPPELPGGPSVFIFPPKPKDTLMISRTPEVTCVVVDVSQDDPEVQFTWYINNEQVRTARPPLREQQFNSTIRVVSTLPIAHQDWLRGKEFKCKVHNKALPAPIEKTISKARGQPLEPKVYTMGPPREELSSRSVSLTCMINGFYPSDISVEWEKNGKAEDNYKTTPTVLDSDGSYFLYSKLSVPTSEWQRGDVFTCSVMHEALHNHYTQKSISRSPGK
light: MDTRAPTQLLGLLLLWLPGARCDVVMTQTPASVSEPVGGAVTIKCQASQSIGSNLAWYQHKPGQPPKLLIYFASSLASGVSSRFKGGRSGTQFTLTISDLECADAATYYCHCTYYPLSYVTFGGGTEVVVKGDPVAPTVLIFPPAADQVATGTVTIVCVANKYFPDVTVTWEVDGTTQTTGIENSKTPQNSADCTYNLSSTLTLTSTQYNSHKEYTCKVTQGTTSVVQSFNRGDC
Yes: Inhibition of CHO-K1 adhesion to collagen [1] | CHO-K1 FACS [2] | Human α11β1 ELISA [3]

B2: 5D7: rabbit anti-α11β1 mAb; heavy chain SEQ ID NO: 191, light chain SEQ ID NO: 192 (antibody)
heavy: METGLRWLLLVAVLKGVQCQEQLVESGGGLVQPEGSLTLTCKASGFDFSSNAMCWVRQAPGKGLEWIACIYNGDGSTYYASWVNGRFTISKTSSTTVTLQMTSLTAADTATYFCARGLSNWNRDNLWGPGTLVTVSSGQPKAPSVFPLAPCCGDTPSSTVTLGCLVKGYLPEPVTVTWNSGTLTNGVRTFPSVRQSSGLYSLSSVVSVTSSSQPVTCNVAHPATNTKVDKTVAPSTCSKPMCPPPELPGGPSVFIFPPKPKDTLMISRTPEVTCVVVDVSQDDPEVQFTWYINNEQVRTARPPLREQQFNSTIRVVSTLPIAHQDWLRGKEFKCKVHNKALPAPIEKTISKARGQPLEPKVYTMGPPREELSSRSVSLTCMINGFYPSDISVEWEKNGKAEDNYKTTPTVLDSDGSYFLYSKLSVPTSEWQRGDVFTCSVMHEALHNHYTQKSISRSPGK
light: MDTRAPTQLLGLLLLWLPGATFAQVLTQTPSSVSAAVGGTATINCQASQSLYSPKNLAWYQQTPGQPPKLLIYSASKLASGVPSRFKGSGSGTQFTLTISGVQCDDAAIYYCQGEFSCTTAACFAFGGGTEVVVKGDPVAPTVLIFPPAADQVATGTVTIVCVANKYFPDVTVTWEVDGTTQTTGIENSKTPQNSADCTYNLSSTLTLTSTQYNSHKEYTCKVTQGTTSVVQSFNRGDC
Yes: Inhibition of CHO-K1 adhesion to collagen [1] | CHO-K1 FACS [2] | Human α11β1 ELISA [3]
